From publication PMC11230452 (bioRxiv, 2024)

B1: K2P13.1EM (human K2P13.1 (THIK-1) residues 1-350, N59Q/N65Q) (domain or fragment, UniProt Q9HB14 1-350, looked up)
chain: MAGRGFSWGPGHLNEDNARFLLLAALIVLYLLGGAAVFSALELAHERQAKQRWEERLAQFSRGHQLSRDELRGFLRHYEEATRAGIRVDNVRPRWDFTGAFYFVGTVVSTIGFGMTTPATVGGKIFLIFYGLVGCSSTILFFNLFLERLITIIAYIMKSCHQRQLRRRGALPQESLKDAGQCEVDSLAGWKPSVYYVMLILCTASILISCCASAMYTPIEGWSYFDSLYFCFVAFSTIGFGDLVSSQNAHYESQGLYRFANFVFILMGVCCIYSLFNVISILIKQSLNWILRKMDSGCCPQCQRGLLRSRRNVVMPGSVRNRCNISIETDGVAESDTDGRRLSGEMISMK
B2: K2P13.1EM S136P/Y273A (domain or fragment, human, UniProt Q9HB14 1-350, looked up)
chain: MAGRGFSWGPGHLNEDNARFLLLAALIVLYLLGGAAVFSALELAHERQAKQRWEERLAQFSRGHQLSRDELRGFLRHYEEATRAGIRVDNVRPRWDFTGAFYFVGTVVSTIGFGMTTPATVGGKIFLIFYGLVGCPSTILFFNLFLERLITIIAYIMKSCHQRQLRRRGALPQESLKDAGQCEVDSLAGWKPSVYYVMLILCTASILISCCASAMYTPIEGWSYFDSLYFCFVAFSTIGFGDLVSSQNAHYESQGLYRFANFVFILMGVCCIASLFNVISILIKQSLNWILRKMDSGCCPQCQRGLLRSRRNVVMPGSVRNRCNISIETDGVAESDTDGRRLSGEMISMK

Molecular target: the molecule itself
Assay: cryo-EM structure

Row | Protein | stoichiometry N | binding result
1 | B1 | 2 | 
2 | B2 |  | binds
